Results published in US10357539B2, “Use of peptides that block metadherin-SND1 interaction as treatment for cancer” (THE TRUSTEES OF PRINCETON UNIVERSITY, priority 2014, dated 2019).
Positions count from the first letter of the chain named. Names may count otherwise. “Also recorded” adds a separate entry of the source.

T1: MTDH-SND1 interaction (Homo sapiens, UniProt Q7KZF4)
T1 construct: Full-length HA-tagged SND1 was co-expressed with full-length Myc-tagged wild-type (WT) or mutant MTDH in HEK293T cells; expressed in transfected cells; host or cells: 293T
T1 sequence (Q7KZF4 1-910): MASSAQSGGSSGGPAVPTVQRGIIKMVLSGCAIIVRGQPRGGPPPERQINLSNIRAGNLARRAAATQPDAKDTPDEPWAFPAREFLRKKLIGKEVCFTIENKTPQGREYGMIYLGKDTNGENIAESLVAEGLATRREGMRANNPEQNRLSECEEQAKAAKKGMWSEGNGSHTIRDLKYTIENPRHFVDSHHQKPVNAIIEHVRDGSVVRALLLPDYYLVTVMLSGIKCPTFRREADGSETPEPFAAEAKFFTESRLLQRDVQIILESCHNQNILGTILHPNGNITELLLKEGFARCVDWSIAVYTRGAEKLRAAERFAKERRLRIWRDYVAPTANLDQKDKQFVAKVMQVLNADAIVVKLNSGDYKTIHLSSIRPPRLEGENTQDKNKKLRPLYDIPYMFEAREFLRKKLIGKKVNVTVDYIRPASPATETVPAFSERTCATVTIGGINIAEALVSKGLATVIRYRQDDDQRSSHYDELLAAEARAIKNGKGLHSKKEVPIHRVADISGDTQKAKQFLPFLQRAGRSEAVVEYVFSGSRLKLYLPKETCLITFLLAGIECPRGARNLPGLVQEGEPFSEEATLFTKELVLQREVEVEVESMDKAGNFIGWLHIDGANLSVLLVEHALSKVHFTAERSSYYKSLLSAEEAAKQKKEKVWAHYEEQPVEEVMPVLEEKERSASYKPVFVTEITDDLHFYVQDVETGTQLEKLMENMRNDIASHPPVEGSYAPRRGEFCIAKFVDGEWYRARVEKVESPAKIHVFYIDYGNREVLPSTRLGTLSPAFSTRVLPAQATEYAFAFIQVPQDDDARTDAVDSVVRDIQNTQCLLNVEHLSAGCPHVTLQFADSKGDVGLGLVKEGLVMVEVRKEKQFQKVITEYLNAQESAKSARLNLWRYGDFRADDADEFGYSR

T2: SND1 (Homo sapiens, UniProt Q7KZF4)
T2 construct: 15 μg of His-SND1 (16-339) was added to the resin; made in house; host or cells: E. coli DH5α
T2 sequence (Q7KZF4 1-339): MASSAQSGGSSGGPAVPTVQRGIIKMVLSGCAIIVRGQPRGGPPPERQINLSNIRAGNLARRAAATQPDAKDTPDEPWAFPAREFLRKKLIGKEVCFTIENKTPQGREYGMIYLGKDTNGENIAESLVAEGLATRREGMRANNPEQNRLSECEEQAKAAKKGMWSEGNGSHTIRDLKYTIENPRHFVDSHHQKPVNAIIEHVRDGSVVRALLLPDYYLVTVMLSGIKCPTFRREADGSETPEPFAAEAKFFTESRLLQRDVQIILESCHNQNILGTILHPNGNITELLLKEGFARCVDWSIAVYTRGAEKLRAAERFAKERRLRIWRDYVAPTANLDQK

T3: SND1 (Homo sapiens, UniProt Q7KZF4)
T3 construct: Full-length HA-tagged SND1 was co-expressed with full-length Myc-tagged wild-type (WT) or mutant MTDH in HEK293T cells; expressed in transfected cells; host or cells: HEK293T
T3 sequence (Q7KZF4 1-910): T1 sequence (Q7KZF4 1-910)

B1: TPM1: MTDH triple-point mutant D389R, D393R and W394D (protein)
chain: YQWDVSRNQPYIDDEWSGLNGLSSARPNSRDNAPAEEWGNWVDEERASLLKSQEPIPDDQKVSDDDKEKGEGALPTGKSKKKKKKKKKQGEDNSTAQDTEELEKEIREDLPVNTSKTRPKQEKAFSLKTISTSDPAEVLVKNSQPIKTLPPATSTEPSVILSKSDSDKSSSQVPPILQETDKSKSNTKQNSVPPSQTKSETSWESPKQIKKKKKARRET
modifications: left off: a dimerising Fc or GST
notes: MTDH triple-point mutant D389R, D393R and W394D
B2: TPM2: MTDH triple-point mutant E399R, E400R and W401D (protein)
chain: B1 chain with R26D, R30D, D31W, E36R, E37R, W38D
modifications: left off: a dimerising Fc or GST
notes: MTDH triple-point mutant E399R, E400R and W401D

How the values were obtained:
MTDH-SND1 interaction = target: T1, MTDH-SND1 interaction; experiment: Immunoprecipitation assay: elution or co-incubation with MTDH peptides, western blot; assay type: biochemical; conditions: 50 uM of peptides; IP of HA-SND1 from 293T (HA-SND1 + MYC-MTDH) and of endogenous SND1 from MDA-MB-231
Method: 293T cells co-transfected with HA-SND1 and MYC-MTDH. After 48 hr cells were collected and subjected to IP assay. (FIG. 26A, FIG. 26B) Cell lysate was incubated with anti-HA antibody or IgG overnight followed by 2 hr incubation with Protein A/G beads to pull down HA-SND1 protein. The beads was washed with lysis buffer and split into 5 fractions. Each fraction was eluted with buffer or indicated peptides for 30 min. The elution fractions and beads were collected for WB. (FIG. 26C, FIG. 26D) Cell lyaste was split into 6 fractions, one of them was incubated with IgG and the rest were incubated with anti-HA antibody plus either buffer or indicated peptides. After 24 hr, the lysate was incubated with Protein A/G beads then the beads were washed in wash buffer.
Breast cancer cells MDA-MB231 were collected and subjected to IP assay. (FIG. 27A) Cell lysate was incubated with anti-SND1 antibody or IgG overnight followed by 2 hr incubation with Protein A/G beads to pull down endogenous SND1 protein. The beads were washed with lysis buffer and split into 5 fractions. Each fraction was eluted with buffer or indicated peptides for 30 min. The elution fractions and beads were collected for WB. (FIG. 27B) Cell lyaste was split into 5 fractions, and incubated with anti-SND1 antibody plus either buffer or indicated peptides. After 24 hr, the lysate was incubated with Protein A/G beads then the beads were washed in wash buffer.
293 T cells were co-transfected with HA-SND1 and MYC-MTDH. After 48 hours, the cells were collected and subject to immunoprecipitation assay. Cell lysate was incubated with anti-HA antibody or IgG overnight followed by a two hour incubation with Protein A/G beads to pull down HA-SND1 protein. The beads were washed with lysis buffer and split into five fractions. Each fraction was eluted with buffer or indicated peptides (i.e., Peptide—wt (PNSDWNAPAEEWGNW, SEQ ID NO: 16); Peptide-394A (PNSDANAPAEEWGNW, SEQ ID NO: 17); Peptide-401A (PNSDWNAPAEEAGNW, SEQ ID NO: 18) and Peptide-MT (PNSDANAPAEEAGNW, SEQ ID NO: 19) for 30 minutes.
The elution fractions and beads were collected for western blot. (FIGS. 26C and 26D) Cell lyaste was split into 6 fractions. One of the fractions was incubated with IgG and the rest were incubated with anti-HA antibody plus either buffer or indicated peptides. After 24 hours, the lysate was incubated with Protein A/G beads then the beads was washed followed by wash buffer. 50 uM of peptides was used in all the assays.
The interaction interruption effects was confirmed by endogenous immunoprecipitation (IP) of a breast cancer cell line. Briefly, cell lysates from the breast cancer cell line MDA-MB-231 were collected and subjected to IP assay. […]

AGO2 = target: T4, AGO2 (Homo sapiens, UniProt Q9UKV8); experiment: Co-immunoprecipitation of Myc-MTDH mutants with AGO2 in HEK293T cells; assay type: cell-based; conditions: HEK293T cell lysates, anti-Myc immunoprecipitation
T4 construct: expressed in transfected cells; host or cells: HEK293T
Source text: FIGS. 7A-E represents determination of key regions and residues mediating the MTDH-SND1 interaction. (FIG. 7A) Schematics of MTDH fragments and mutants with indicated SND1-binding capability. + indicates binding and − indicates no binding based on results shown below. Two putative nuclear localization signals are residues 432-451 for NLS2 and residues 561-580 for NLS3. In the enlarged view of the minimal binding region 386-407, 9 residues were targeted for mutagenesis in the current study. […] (FIG. 7B) Pulldown of His6-SND1AC by GST-tagged MTDH fragments with indicated boundaries. The bound proteins were examined by SDS-PAGE and visualized by Coomassie blue staining. (FIG. 7C) Pulldown of His6-SND1ΔC by GST-tagged WT or triple mutant MTDH fragments (364-582). For (FIG. 7B) and (FIG. 7C), 1/10 of the His6-SND1ΔC input was shown, and GST alone was used as a negative control. Representative results of 3 independent experiments are shown. (FIG. 7D, FIG. 7E) Lysates from HEK293T cells expressing the indicated ectopic human SND1, AGO2 or MTDH were immunoprecipitated with anti-Myc and immunoblotted with the indicated antibodies. […]

SND1 [1] = target: T2, SND1; experiment: GST-mediated pull-down of SND1 by GST-tagged MTDH fragments and mutants; assay type: binding; conditions: His6-SND1ΔC (1-339); Coomassie blue staining
Summary of the method: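 GST-MTDH fragments or mutants (~20 μg) on glutathione resin incubated with 15 μg His-SND1 (16-339) in 25 mM Tris pH 8.0, 150 mM NaCl, 3 mM DTT plus 2 mg/ml BSA. Bound protein resolved by SDS-PAGE, Coomassie-stained; bound SND1 ratio quantified by densitometry over 3 repeats.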

SND1 [2] = target: T3, SND1; experiment: Co-immunoprecipitation of full-length Myc-MTDH (WT or mutant) and HA-SND1 in HEK293T cells; assay type: cell-based; conditions: HEK293T cell lysates, immunoprecipitation and immunoblot
Source text: FIGS. 7A-E represents determination of key regions and residues mediating the MTDH-SND1 interaction. (FIG. 7A) Schematics of MTDH fragments and mutants with indicated SND1-binding capability. + indicates binding and − indicates no binding based on results shown below. Two putative nuclear localization signals are residues 432-451 for NLS2 and residues 561-580 for NLS3. In the enlarged view of the minimal binding region 386-407, 9 residues were targeted for mutagenesis in the current study. […] (FIG. 7B) Pulldown of His6-SND1AC by GST-tagged MTDH fragments with indicated boundaries. The bound proteins were examined by SDS-PAGE and visualized by Coomassie blue staining. (FIG. 7C) Pulldown of His6-SND1ΔC by GST-tagged WT or triple mutant MTDH fragments (364-582). For (FIG. 7B) and (FIG. 7C), 1/10 of the His6-SND1ΔC input was shown, and GST alone was used as a negative control. Representative results of 3 independent experiments are shown. (FIG. 7D, FIG. 7E) Lysates from HEK293T cells expressing the indicated ectopic human SND1, AGO2 or MTDH were immunoprecipitated with anti-Myc and immunoblotted with the indicated antibodies.
(FIG. 22A) In vitro pull-down of SND1 (16-339) by GST-tagged MTDH (364-582) harboring WT or mutant sequence. The proteins bound to GS4B were examined on SDS-PAGE and visualized by Coomassie blue staining. (FIG. 22B) In vitro pull-down of WT and mutant SND1 (16-339) by GST-tagged MTDH (364-582). The bound proteins were examined as in (FIG. 22A). For both (FIG. 22A) and (FIG. 22B), experiments were repeated three times; representative results are shown. The normalized percentage of binding was averaged from three experiments; mean±SEM was shown below the data. (FIG. 22C) HEK293T cells were transfected with human HA-SND1, WT Myc-MTDH or Myc-MTDH with indicated single point mutation. Lysates were immunoprecipitated with anti-Myc antibody and immunoblotted with the indicated antibodies. (FIG. 22D) HEK293T cells were transfected with human Myc-MTDH, WT HA-SND1 or mutant HA-SND1 with indicated single point mutations or deletions. Lysates were immunoprecipitated with anti-Myc and immunoblotted with the indicated antibodies.
Immunoprecipitation and western blot For immunoprecipitation (IP) experiments, cultured cells were washed in cold PBS and lysed in lysis buffer (20 mM Tris pH 7.4, 0.15 M NaCl, 1 mM EDTA, 1 mM EGTA, 1% Tx-100, 0.0025 M Na2P2O7, 1 mM α-glycerolphosphate, 1 mM Na3VO4, and 1 mM NaF) with an EDTA-free protease inhibitor mixture (Roche Applied Science) and PMSF. Cell lysates were then incubated on ice for 10 min, centrifuged, and precleared by incubating with protein A/G beads (Santa Cruz Biotechnology) for 1 h at 4° C. For IP bead preparation, 30 μl of protein A/G beads were incubated with 5 μg of antibodies for 2 h at 4° C. IPs were carried out for overnight at 4° C., and beads were centrifuged, washed and subsequently boiled for 5 min in SDS protein loading buffer to elute bound protein. IP lysates were subjected to western blotting with indicated antibodies.
Immunoprecipitation and western blot: For in vivo immunoprecipitation (IP) experiments, cultured cells were washed in cold PBS and lysed in lysis buffer (20 mM Tris pH 7.4, 0.15 M NaCl, 1 mM EDTA, 1 mM EGTA, 1% Tx-100, 0.0025 M Na2P2O7, 1 mM β-glycerolphosphate, 1 mM Na3VO4, and 1 mM NaF) with an EDTA-free protease inhibitor mixture (Roche Applied Science) and PMSF. Cell lysates were then incubated on ice for 10 min, centrifuged, and precleared by incubating with protein A/G beads (Santa Cruz Biotechnology) for 1 h at 4° C. For IP bead preparation, 30 μl of protein A/G beads were incubated with 5 μg of antibodies for 2 h at 4° C. IPs were carried out for overnight at 4° C., and beads were centrifuged, washed and subsequently boiled for 5 min in SDS protein loading buffer to elute bound protein. IP lysates were subjected to western blotting with indicated antibodies.

T4 sequence (Q9UKV8 whole entry): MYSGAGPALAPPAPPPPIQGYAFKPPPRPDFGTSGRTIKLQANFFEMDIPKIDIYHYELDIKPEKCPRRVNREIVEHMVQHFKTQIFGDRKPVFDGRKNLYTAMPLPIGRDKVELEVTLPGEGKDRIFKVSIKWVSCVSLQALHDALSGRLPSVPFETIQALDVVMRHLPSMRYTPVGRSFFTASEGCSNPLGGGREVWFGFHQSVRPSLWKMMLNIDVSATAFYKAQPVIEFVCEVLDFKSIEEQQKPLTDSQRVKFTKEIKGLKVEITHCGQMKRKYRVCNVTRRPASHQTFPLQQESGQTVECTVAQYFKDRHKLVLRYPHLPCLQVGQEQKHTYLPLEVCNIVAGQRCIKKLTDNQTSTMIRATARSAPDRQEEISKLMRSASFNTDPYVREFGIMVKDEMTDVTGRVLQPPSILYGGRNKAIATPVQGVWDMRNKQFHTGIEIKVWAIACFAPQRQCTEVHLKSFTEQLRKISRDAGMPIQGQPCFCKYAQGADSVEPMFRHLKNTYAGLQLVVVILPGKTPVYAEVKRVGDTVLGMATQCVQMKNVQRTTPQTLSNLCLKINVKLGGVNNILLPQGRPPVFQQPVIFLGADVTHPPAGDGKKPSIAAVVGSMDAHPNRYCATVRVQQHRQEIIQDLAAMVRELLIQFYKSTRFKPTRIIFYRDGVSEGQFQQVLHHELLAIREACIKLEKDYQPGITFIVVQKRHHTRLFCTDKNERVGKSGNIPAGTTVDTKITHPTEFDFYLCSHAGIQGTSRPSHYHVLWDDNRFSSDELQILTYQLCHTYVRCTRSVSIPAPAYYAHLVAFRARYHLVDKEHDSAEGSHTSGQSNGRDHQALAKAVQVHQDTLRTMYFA

Row | Molecule | block of MTDH-SND1 interaction by peptide (MTDH-SND1 interaction) | interaction of MTDH mutants with AGO2 (AGO2) | SND1-binding of MTDH fragments and triple mutants, in vitro (SND1 [1]) | interaction of full-length MTDH (WT or mutant) with HA-SND1 (SND1 [2])
1 | PNSDANAPAEEWGNW (listed as Homo sapiens) [single point mutation W394A] | have no effect in interrupting the interaction of MTDH with SND1 | – | – | –
2 | PNSDWNAPAEEAGNW (listed as Homo sapiens) | reduced the effectiveness of the wild type peptide by half | – | – | –
3 | PNSDWNAPAEEWGNW (listed as Homo sapiens) [wild type MTDH peptide] | can effectively block MTDH-SND1 interaction; also recorded: significant block MTDH-SND1 interaction | – | – | –
4 | B1 | – | still able to interact with AGO2 | could not bind | not
5 | B2 | – | still able to interact with AGO2 | could not bind | not
